Data set [1] deals with the molecule itself. Briefly: native gel or EMSA; Native-PAGE of IpaH9.8 and IpaH9.8-C337A under reducing and non-reducing conditions.
Data set [2] addresses T1, human guanylate-binding protein 1 (hGBP1), full-length (human, UniProt P32455 1-592, NT-647-NHS label (in the MST assay only)).
T1 construct: full-length in the crystallized complex; in MST it was fluorescently labelled (NT-647-NHS) and no nucleotide is mentioned
T1 sequence (looked up): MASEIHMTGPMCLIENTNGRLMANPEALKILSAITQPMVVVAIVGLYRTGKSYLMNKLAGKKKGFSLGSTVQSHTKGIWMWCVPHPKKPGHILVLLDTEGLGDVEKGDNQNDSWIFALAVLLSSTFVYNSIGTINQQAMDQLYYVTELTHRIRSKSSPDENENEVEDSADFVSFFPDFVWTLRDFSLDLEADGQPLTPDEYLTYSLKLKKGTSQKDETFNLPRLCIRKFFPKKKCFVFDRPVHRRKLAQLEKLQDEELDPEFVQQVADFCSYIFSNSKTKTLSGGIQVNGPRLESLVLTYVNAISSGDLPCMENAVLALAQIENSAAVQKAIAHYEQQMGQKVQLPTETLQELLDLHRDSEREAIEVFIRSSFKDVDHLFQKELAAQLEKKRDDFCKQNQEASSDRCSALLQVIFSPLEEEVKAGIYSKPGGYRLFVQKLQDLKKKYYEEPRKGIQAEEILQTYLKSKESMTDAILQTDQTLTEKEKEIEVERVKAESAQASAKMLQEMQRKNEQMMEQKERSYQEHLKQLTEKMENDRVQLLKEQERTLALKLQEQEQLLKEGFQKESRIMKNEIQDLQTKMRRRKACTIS
As to the kind of experiment: MST; 75 nM NT-647-NHS-labeled hGBP1 in PBS pH 7.4; IpaH9.8 titrated in, 30 min at room temperature; Monolith NT.Automated. Particulars: both partners purified.

Data set [3] has as its target T1, human guanylate-binding protein 1 …. Briefly: crystal structure; 0.3 mM IpaH9.8^LRR (22–244) mixed with 0.3 mM full-length hGBP1 and 5 mM GDP; 3.5 M NaCl, 0.1 M sodium citrate pH 6.5, 20 °C; space group P6122, one heterodimer in the asymmetric unit. The following applies: both partners purified.

B1: IpaH9.8 (wild type, Shigella flexneri) (enzyme)
chain: MLPINNNFSLPQNSFYNTISGTYADYFSAWDKWEKQALPGEERDEAVSRLKECLINNSDELRLDRLNLSSLPDNLPAQITLLNVSYNQLTNLPELPVTLKKLYSASNKLSELPVLPPALESLQVQHNELENLPALPDSLLTMNISYNEIVSLPSLPQALKNLRATRNFLTELPAFSEGNNPVVREYFFDRNQISHIPESILNLRNECSIHISDNPLSSHALPALQRLTSSPDYHGPRIYFSMSDGQQNTLHRPLADAVTAWFPENKQSDVSQIWHAFEHEEHANTFSAFLDRLSDTVSARNTSGFREQVAAWLEKLSASAELRQQSFAVAADATESCEDRVALTWNNLRKTLLVHQASEGLFDNDTGALLSLGREMFRLEILEDIARDKVRTLHFVDEIEVYLAFQTMLAEKLQLSTAVKEMRFYGVSGVTANDLRTAEAMVRSREENEFTDWFSLWGPWHAVLKRTEADRWAQAEEQKYEMLENEYPQRVADRLKASGLSGDADAEREAGAQVMRETEQQIYRQLTDEVLALRLPENGSQLHHS
notes: IpaH9.8, bacterial E3 ubiquitin ligase of S. flexneri; the wild-type gene was synthesised and cloned as 'IpaH9.8' into pET28M; No tag cleavage is described although the vector has a TEV site; also called IpaH9.8-WT; wild-type IpaH9.8
For the molecule B1, the binding result in data set [1] and in data set [2] was “binds” each time.

B2: IpaH9.8-C337A (enzyme)
chain: MLPINNNFSLPQNSFYNTISGTYADYFSAWDKWEKQALPGEERDEAVSRLKECLINNSDELRLDRLNLSSLPDNLPAQITLLNVSYNQLTNLPELPVTLKKLYSASNKLSELPVLPPALESLQVQHNELENLPALPDSLLTMNISYNEIVSLPSLPQALKNLRATRNFLTELPAFSEGNNPVVREYFFDRNQISHIPESILNLRNECSIHISDNPLSSHALPALQRLTSSPDYHGPRIYFSMSDGQQNTLHRPLADAVTAWFPENKQSDVSQIWHAFEHEEHANTFSAFLDRLSDTVSARNTSGFREQVAAWLEKLSASAELRQQSFAVAADATESAEDRVALTWNNLRKTLLVHQASEGLFDNDTGALLSLGREMFRLEILEDIARDKVRTLHFVDEIEVYLAFQTMLAEKLQLSTAVKEMRFYGVSGVTANDLRTAEAMVRSREENEFTDWFSLWGPWHAVLKRTEADRWAQAEEQKYEMLENEYPQRVADRLKASGLSGDADAEREAGAQVMRETEQQIYRQLTDEVLALRLPENGSQLHHS
notes: IpaH9.8 of S. flexneri with the active cysteine changed (C337A); mutants made by PCR-based mutagenesis; likely the same as m1
Take B2: the binding result in data set [1] is reported as “binds”.

B3: IpaH9.8-R166A (enzyme)
chain: MLPINNNFSLPQNSFYNTISGTYADYFSAWDKWEKQALPGEERDEAVSRLKECLINNSDELRLDRLNLSSLPDNLPAQITLLNVSYNQLTNLPELPVTLKKLYSASNKLSELPVLPPALESLQVQHNELENLPALPDSLLTMNISYNEIVSLPSLPQALKNLRATANFLTELPAFSEGNNPVVREYFFDRNQISHIPESILNLRNECSIHISDNPLSSHALPALQRLTSSPDYHGPRIYFSMSDGQQNTLHRPLADAVTAWFPENKQSDVSQIWHAFEHEEHANTFSAFLDRLSDTVSARNTSGFREQVAAWLEKLSASAELRQQSFAVAADATESCEDRVALTWNNLRKTLLVHQASEGLFDNDTGALLSLGREMFRLEILEDIARDKVRTLHFVDEIEVYLAFQTMLAEKLQLSTAVKEMRFYGVSGVTANDLRTAEAMVRSREENEFTDWFSLWGPWHAVLKRTEADRWAQAEEQKYEMLENEYPQRVADRLKASGLSGDADAEREAGAQVMRETEQQIYRQLTDEVLALRLPENGSQLHHS
notes: IpaH9.8 of S. flexneri with Arg166 changed to alanine; mutants made by PCR-based mutagenesis; likely the same as m1; also called IpaH9.8 mutant R166A
For the molecule B3, the binding result in data set [2] is “binds”.

B4: IpaH9.8^LRR (22–244), LRR domain of IpaH9.8 (domain or fragment)
chain: TYADYFSAWDKWEKQALPGEERDEAVSRLKECLINNSDELRLDRLNLSSLPDNLPAQITLLNVSYNQLTNLPELPVTLKKLYSASNKLSELPVLPPALESLQVQHNELENLPALPDSLLTMNISYNEIVSLPSLPQALKNLRATRNFLTELPAFSEGNNPVVREYFFDRNQISHIPESILNLRNECSIHISDNPLSSHALPALQRLTSSPDYHGPRIYFSMSD
notes: Leucine-rich repeat domain of IpaH9.8 of S. flexneri, residues 22–244 as crystallized (the plasmid section says 21–244); Plasmids section gives 21–244, crystallization section 22–244; also called IpaH9.8 LRR domain; IpaH9.8^LRR-Sub
With B4, the binding result in data set [3] is “binds”.

The values are drawn from paper PMC7728815, “Substrate-binding destabilizes the hydrophobic cluster to relieve the autoinhibition of bacterial ubiquitin ligase IpaH9.8” (Communications Biology, 2020).
